Laboratory results from PMC11574045, “A cofactor-induced repressive type of transcription factor condensation can be induced by synthetic peptides to suppress tumorigenesis” (The EMBO Journal, 2024).

B1: ZNF174 (protein, UniProt Q15697 1-407, looked up)
Zinc finger protein 174: MAAKMEITLSSNTEASSKQERHIIAKLEEKRGPPLQKNCPDPELCRQSFRRFCYQEVSGPQEALSQLRQLCRQWLQPELHTKEQILELLVMEQFLTILPPEIQARVRHRCPMSSKEIVTLVEDFHRASKKPKQWVAVCMQGQKVLLEKTGSQLGEQELPDFQPQTPRRDLRESSPAEPSQAGAYDRLSPHHWEKSPLLQEPTPKLAGTEAPRMRSDNKENPQQEGAKGAKPCAVSAGRSKGNGLQNPEPRGANMSEPRLSRRQVSSPNAQKPFAHYQRHCRVEYISSPLKSHPLRELKKSKGGKRSLSNRLQHLGHQPTRSAKKPYKCDDCGKSFTWNSELKRHKRVHTGERPYTCGECGNCFGRQSTLKLHQRIHTGEKPYQCGQCGKSFRQSSNLHQHHRLHHGD
B2: ZFP36L1 (protein, UniProt P23950 1-338, looked up)
mRNA decay activator protein …: MTTTLVSATIFDLSEVLCKGNKMLNYSTPSAGGCLLDRKAVGTPAGGGFPRRHSVTLPSSKFHQNQLLSSLKGEPAPSLSSRDSRFRDRSFSEGGERLLPTQKQPGSGQVNSSRYKTELCRPFEENGACKYGDKCQFAHGIHELRSLTRHPKYKTELCRTFHTIGFCPYGPRCHFIHNAEERRALAGGRDLSADRPRLQHSFSFAGFPSAAATAAATGLLDSPTSITPPPILSADDLLGSPTLPDGTNNPFAFSSQELASLFAPSMGLPGGGSPTTFLFRPMSESPHMFDSPPSPQDSLSDHEGYLSSSSSSHSGSDSPTLDNSRRLPIFSRLSISDD
B3: CARHSP1 (protein, UniProt Q9Y2V2 2-147, looked up)
Calcium-regulated heat-stable …: SSEPPPPPQPPTHQASVGLLDTPRSRERSPSPLRGNVVPSPLPTRRTRTFSATVRASQGPVYKGVCKCFCRSKGHGFITPADGGPDIFLHISDVEGEYVPVEGDEVTYKMCSIPPKNEKLQAVEVVITHLAPGTKHETWSGHVISS
B4: ZIC3 (protein, UniProt O60481 1-467, looked up)
Zinc finger protein ZIC 3: MTMLLDGGPQFPGLGVGSFGAPRHHEMPNREPAGMGLNPFGDSTHAAAAAAAAAAFKLSPAAAHDLSSGQSSAFTPQGSGYANALGHHHHHHHHHHHTSQVPSYGGAASAAFNSTREFLFRQRSSGLSEAASGGGQHGLFAGSASSLHAPAGIPEPPSYLLFPGLHEQGAGHPSPTGHVDNNQVHLGLRGELFGRADPYRPVASPRTDPYAAGAQFPNYSPMNMNMGVNVAAHHGPGAFFRYMRQPIKQELSCKWIDEAQLSRPKKSCDRTFSTMHELVTHVTMEHVGGPEQNNHVCYWEECPREGKSFKAKYKLVNHIRVHTGEKPFPCPFPGCGKIFARSENLKIHKRTHTGEKPFKCEFEGCDRRFANSSDRKKHMHVHTSDKPYICKVCDKSYTHPSSLRKHMKVHESQGSDSSPAASSGYESSTPPAIASANSKDTTKTPSAVQTSTSHNPGLPPNFNEWYV
B5: ZFY (protein, UniProt P08048 1-801, looked up)
Zinc finger Y-chromosomal …: MDEDEFELQPQEPNSFFDGIGADATHMDGDQIVVEIQEAVFVSNIVDSDITVHNFVPDDPDSVVIQDVVEDVVIEEDVQCSDILEEADVSENVIIPEQVLDSDVTEEVSLPHCTVPDDVLASDITSTSMSMPEHVLTSESMHVCDIGHVEHMVHDSVVEAEIITDPLTSDIVSEEVLVADCAPEAVIDASGISVDQQDNDKASCEDYLMISLDDAGKIEHDGSTGVTIDAESEMDPCKVDSTCPEVIKVYIFKADPGEDDLGGTVDIVESEPENDHGVELLDQNSSIRVPREKMVYMTVNDSQQEDEDLNVAEIADEVYMEVIVGEEDAAVAAAAAAVHEQQIDEDEMKTFVPIAWAAAYGNNSDGIENRNGTASALLHIDESAGLGRLAKQKPKKKRRPDSRQYQTAIIIGPDGHPLTVYPCMICGKKFKSRGFLKRHMKNHPEHLAKKKYHCTDCDYTTNKKISLHNHLESHKLTSKAEKAIECDECGKHFSHAGALFTHKMVHKEKGANKMHKCKFCEYETAEQGLLNRHLLAVHSKNFPHICVECGKGFRHPSELRKHMRIHTGEKPYQCQYCEYRSADSSNLKTHIKTKHSKEMPFKCDICLLTFSDTKEVQQHTLVHQESKTHQCLHCDHKSSNSSDLKRHVISVHTKDYPHKCEMCEKGFHRPSELKKHVAVHKGKKMHQCRHCDFKIADPFVLSRHILSVHTKDLPFRCKRCRKGFRQQNELKKHMKTHSGRKVYQCEYCEYSTTDASGFKRHVISIHTKDYPHRCEYCKKGFRRPSEKNQHIMRHHKEVGLP
B6: CALR (protein, UniProt P27797 18-417, looked up)
Calreticulin: EPAVYFKEQFLDGDGWTSRWIESKHKSDFGKFVLSSGKFYGDEEKDKGLQTSQDARFYALSASFEPFSNKGQTLVVQFTVKHEQNIDCGGGYVKLFPNSLDQTDMHGDSEYNIMFGPDICGPGTKKVHVIFNYKGKNVLINKDIRCKDDEFTHLYTLIVRPDNTYEVKIDNSQVESGSLEDDWDFLPPKKIKDPDASKPEDWDERAKIDDPTDSKPEDWDKPEHIPDPDAKKPEDWDEEMDGEWEPPVIQNPEYKGEWKPRQIDNPDYKGTWIHPEIDNPEYSPDPSIYAYDNFGVLGLDLWQVKSGTIFDNFLITNDEAYAEEFGNETWGVTKAAEKQMKDKQDEEQRLKEEEEDKKRKEEEEAEDKEDDEDKDEDEEDEEDKEEDEEEDVPGQAKDEL
B7: ZFP67 (protein, UniProt O15156 1-539, looked up)
Zinc finger and BTB …: MGSPEDDLIGIPFPDHSSELLSCLNEQRQLGHLCDLTIRTQGLEYRTHRAVLAACSHYFKKLFTEGGGGAVMGAGGSGTATGGAGAGVCELDFVGPEALGALLEFAYTATLTTSSANMPAVLQAARLLEIPCVIAACMEILQGSGLEAPSPDEDDCERARQYLEAFATATASGVPNGEDSPPQVPLPPPPPPPPRPVARRSRKPRKAFLQTKGARANHLVPEVPTVPAHPLTYEEEEVAGRVGSSGGSGPGDSYSPPTGTASPPEGPQSYEPYEGEEEEEELVYPPAYGLAQGGGPPLSPEELGSDEDAIDPDLMAYLSSLHQDNLAPGLDSQDKLVRKRRSQMPQECPVCHKIIHGAGKLPRHMRTHTGEKPFACEVCGVRFTRNDKLKIHMRKHTGERPYSCPHCPARFLHSYDLKNHMHLHTGDRPYECHLCHKAFAKEDHLQRHLKGQNCLEVRTRRRRKDDAPPHYPPPSTAAASPAGLDLSNGHLDTFRLSLARFWEQSAPTGPPVSTPGPPDDDEEEGAPTTPQAEGAMESS
B8: ZNF19 (protein, UniProt P17023 1-458, looked up)
Zinc finger protein 19: MAAMPLKAQYQEMVTFEDVAVHFTKTEWTGLSPAQRALYRSVMLENFGNLTALGYPVPKPALISLLERGDMAWGLEAQDDPPAERTKNVCKDVETNIDSESTLIQGISEERDGMMSHGQLKSVPQRTDFPETRNVEKHQDIPTVKNIQGKVPRIPCARKPFICEECGKSFSYFSYYARHQRIHTGEKPFECSECGKAFNGNSSLIRHQRIHTGERPYQCEECGRAFNDNANLIRHQRIHSGDRPYYCTECGNSFTSSSEFVIHQRIHTGEKPYECNECGKAFVGNSPLLRHQKIHTGEKPYECNECGKSFGRTSHLSQHQRIHTGEKPYSCKVCGQAFNFHTKLTRHQRIHSEEKPFDCVDCGKAFSAQEQLKRHLRIHTQESSYVCDECGKALTSKRNLHQHQRIHTGEKPYECSKYEKAFGTSSQLGHLEHVYSGEKPVLDICRFGLPEFFTPFYW
B9: ZKSCAN3 (protein, UniProt Q9BRR0 1-538, looked up)
Zinc finger protein with KRAB …: MARELSESTALDAQSTEDQMELLVIKVEEEEAGFPSSPDLGSEGSRERFRGFRYPEAAGPREALSRLRELCRQWLQPEMHSKEQILELLVLEQFLTILPGNLQSWVREQHPESGEEVVVLLEYLERQLDEPAPQVSGVDQGQELLCCKMALLTPAPGSQSSQFQLMKALLKHESVGSQPLQDRVLQVPVLAHGGCCREDKVVASRLTPESQGLLKVEDVALTLTPEWTQQDSSQGNLCRDEKQENHGSLVSLGDEKQTKSRDLPPAEELPEKEHGKISCHLREDIAQIPTCAEAGEQEGRLQRKQKNATGGRRHICHECGKSFAQSSGLSKHRRIHTGEKPYECEECGKAFIGSSALVIHQRVHTGEKPYECEECGKAFSHSSDLIKHQRTHTGEKPYECDDCGKTFSQSCSLLEHHRIHTGEKPYQCSMCGKAFRRSSHLLRHQRIHTGDKNVQEPEQGEAWKSRMESQLENVETPMSYKCNECERSFTQNTGLIEHQKIHTGEKPYQCNACGKGFTRISYLVQHQRSHVGKNILSQ
B10: CARF (protein, UniProt Q9NXV6 2-580, looked up)
CDKN2A-interacting protein: AQEVSEYLSQNPRVAAWVEALRCDGETDKHWRHRRDFLLRNAGDLAPAGGAASASTDEAADAESGTRNRQLQQLISFSMAWANHVFLGCRYPQKVMDKILSMAEGIKVTDAPTYTTRDELVAKVKKRGISSSNEGVEEPSKKRVIEGKNSSAVEQDHAKTSAKTERASAQQENSSTCIGSAIKSESGNSARSSGISSQNSSTSDGDRSVSSQSSSSVSSQVTTAGSGKASEAEAPDKHGSASFVSLLKSSVNSHMTQSTDSRQQSGSPKKSALEGSSASASQSSSEIEVPLLGSSGSSEVELPLLSSKPSSETASSGLTSKTSSEASVSSSVAKNSSSSGTSLLTPKSSSSTNTSLLTSKSTSQVAASLLASKSSSQTSGSLVSKSTSLASVSQLASKSSSQTSTSQLPSKSTSQSSESSVKFSCKLTNEDVKQKQPFFNRLYKTVAWKLVAVGGFSPNVNHGELLNAAIEALKATLDVFFVPLKELADLPQNKSSQESIVCELRCKSVYLGTGCGKSKENAKAVASREALKLFLKKKVVVKICKRKYRGSEIEDLVLLDEESRPVNLPPALKHPQELL
B11: ZGLP1 (protein, UniProt P0C6A0 1-273, looked up)
GATA-type zinc finger protein …: MEAEPIPDSSMPAKLLAPPCLNLERLGGSPSQEKPRTPGCCRISERSLWPACQESVTALCFLQETVERLGQSPAQDTPVLGPCWDPMALGTQGRLLLDRDSKDTQTRISQKGRRLQPPGTPSAPPQRRPRKQLNPCRGTERVDPGFEGVTLKFQIKPDSSLQIIPTYSLPCSSRSQESPADAVGGPAAHPGGTEAHSAGSEALEPRRCASCRTQRTPLWRDAEDGTPLCNACGIRYKKYGTRCSSCWLVPRKNVQPKRLCGRCGVSLDPIQEG
B12: ZNF165 (protein, UniProt P49910 1-485, looked up)
Zinc finger protein 165: MATEPKKAAAQNSPEDEGLLIVKIEEEEFIHGQDTCLQRSELLKQELCRQLFRQFCYQDSPGPREALSRLRELCCQWLKPEIHTKEQILELLVLEQFLTILPGDLQAWVHEHYPESGEEAVTILEDLERGTDEAVLQVQAHEHGQEIFQKKVSPPGPALNVKLQPVETKAHFDSSEPQLLWDCDNESENSRSMPKLEIFEKIESQRIISGRISGYISEASGESQDICKSAGRVKRQWEKESGESQRLSSAQDEGFGKILTHKNTVRGEIISHDGCERRLNLNSNEFTHQKSCKHGTCDQSFKWNSDFINHQIIYAGEKNHQYGKSFKSPKLAKHAAVFSGDKTHQCNECGKAFRHSSKLARHQRIHTGERCYECNECGKSFAESSDLTRHRRIHTGERPFGCKECGRAFNLNSHLIRHQRIHTREKPYECSECGKTFRVSSHLIRHFRIHTGEKPYECSECGRAFSQSSNLSQHQRIHMRENLLM

system: HEK293FT cells transfected with TF library; experiment: Screening of TF condensates based on fluorescent puncta; type: cell-based; conditions: Figure 1B numerical data; TF library screen, one value per transcriptional factor
In short: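 HEK293FT cells were reverse-transfected with Flag- or GAL4-tagged TF plasmids (1.6 μg/ml, PEI). After 60 h, cells were cultured 12 h with or without glucose, then fixed and immunostained with anti-Flag or anti-GAL4 and Alexa 488 secondaries. Fluorescent puncta were imaged over fifty random fields per well by high-content imaging.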

**Q.** B1 was tested. Which “Z score of condensed fraction” value did it give?
**A.** Its value is -0.9036.

**Q.** For B2, which “Z score of condensed fraction” value is on record?
**A.** Its value is 0.2477.

**Q.** Which “Z score of condensed fraction” value does the source give for B3 here?
**A.** Its value is 2.822.

**Q.** Which “Z score of condensed fraction” value does the source give for B4 here?
**A.** Its value is -0.3091.

**Q.** For B5, which “Z score of condensed fraction” value is on record?
**A.** Its value is -1.019.

**Q.** For B6, which “Z score of condensed fraction” value is on record?
**A.** The value was 1.22.

**Q.** For B7, which “Z score of condensed fraction” value is on record?
**A.** The value was 0.1735.

**Q.** B8 was tested. Which “Z score of condensed fraction” value did it give?
**A.** Its value is -0.9415.

**Q.** How did the “Z score of condensed fraction” value turn out when B9 was run?
**A.** Its value is 0.9842.

**Q.** With B10 as the molecule, how does the “Z score of condensed fraction” value read?
**A.** Its value is 2.409.

**Q.** For B11, which “Z score of condensed fraction” value is on record?
**A.** The value was -0.7375.

**Q.** For B12, which “Z score of condensed fraction” value is on record?
**A.** Its value is 0.7106.
